Measured values: patent publication US20220249683A1 (MAGENTA THERAPEUTICS, published 2022)

How the values were obtained:
human CD5 on cells [1] = molecular target: T1, human CD5 on cells (human, UniProt P06127 25-495); assay: flow cytometry on MOLT-4 cells, antibody titration, anti-mouse AF488 secondary, 4 C
T1 construct: Endogenous CD5 on MOLT-4 human T lymphoblast cells or primary human T cells; The cell type is named under assay; also called CD5 on MOLT-4 cells; CD5 on primary human T-cells
T1 sequence (looked up): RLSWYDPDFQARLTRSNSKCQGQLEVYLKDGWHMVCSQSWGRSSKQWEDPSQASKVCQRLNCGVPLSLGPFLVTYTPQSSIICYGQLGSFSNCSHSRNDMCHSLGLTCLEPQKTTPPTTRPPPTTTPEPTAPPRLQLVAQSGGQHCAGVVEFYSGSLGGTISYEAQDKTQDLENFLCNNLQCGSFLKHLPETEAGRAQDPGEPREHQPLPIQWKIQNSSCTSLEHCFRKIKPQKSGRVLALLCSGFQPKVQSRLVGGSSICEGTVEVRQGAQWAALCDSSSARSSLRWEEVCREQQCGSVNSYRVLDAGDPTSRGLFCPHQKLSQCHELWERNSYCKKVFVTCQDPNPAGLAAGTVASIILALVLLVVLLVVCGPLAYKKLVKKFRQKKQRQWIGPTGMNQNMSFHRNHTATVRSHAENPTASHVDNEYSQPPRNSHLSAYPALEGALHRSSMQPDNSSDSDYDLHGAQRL

human CD5 on cells [2] = molecular target: T1, human CD5 on cells; assay: flow cytometry on MOLT-4 cells, antibody titration 2 h at 4 C, anti-mouse AF488 secondary, geometric MFI
human CD2 on cells [3] = molecular target: T2, human CD2 on cells (human, UniProt P06729 25-351); assay: flow cytometry on MOLT-4 cells, antibody titration, anti-mouse AF488 secondary, 4 C
T2 construct: Endogenous CD2 on MOLT-4 human T lymphoblast cells, primary human T cells or primary human NK cells; The cell type is named under assay; also called CD2 on MOLT-4 cells; CD2 on primary human T-cells
T2 sequence: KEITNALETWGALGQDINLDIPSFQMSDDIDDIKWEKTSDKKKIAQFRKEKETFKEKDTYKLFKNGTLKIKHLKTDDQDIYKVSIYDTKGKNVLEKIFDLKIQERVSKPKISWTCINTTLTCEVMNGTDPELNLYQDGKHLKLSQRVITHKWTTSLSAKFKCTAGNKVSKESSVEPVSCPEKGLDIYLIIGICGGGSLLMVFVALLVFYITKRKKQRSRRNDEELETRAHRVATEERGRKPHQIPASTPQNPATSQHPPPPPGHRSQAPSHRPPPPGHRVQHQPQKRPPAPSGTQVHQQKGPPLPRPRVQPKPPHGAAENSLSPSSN

[4] = molecular target: T3, purified human CD5 ectodomain (human, UniProt P06127 25-372); assay: BLI (Octet Red96), IgG on anti-human Fc biosensor, 50 nM human CD5 ectodomain
T3 sequence (looked up): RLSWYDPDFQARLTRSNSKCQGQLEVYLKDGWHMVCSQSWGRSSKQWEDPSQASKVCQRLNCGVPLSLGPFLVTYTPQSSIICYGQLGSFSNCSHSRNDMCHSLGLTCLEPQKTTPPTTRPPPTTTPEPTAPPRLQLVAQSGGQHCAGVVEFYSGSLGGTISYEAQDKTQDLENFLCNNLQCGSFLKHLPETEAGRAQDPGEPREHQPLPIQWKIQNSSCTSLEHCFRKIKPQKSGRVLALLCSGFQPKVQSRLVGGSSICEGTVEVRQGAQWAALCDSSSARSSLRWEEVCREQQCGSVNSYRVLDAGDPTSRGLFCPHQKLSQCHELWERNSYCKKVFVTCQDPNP
Procedure: To determine the binding characteristics of anti-CD5 antibody 5D7 hIgG1, antibody binding studies were performed at 25 degrees celsius in 1×PBS supplemented with 0.1% w/v bovine serum albumin with a Pall ForteBio Octet Red96 using biolayer interferometry (BLI).

human CD5 on cells [5] = molecular target: T1, human CD5 on cells; assay: flow cytometry on primary human T-cells, antibody titration 2 h at 37 C, AF488 secondary
human CD5 on cells [6] = molecular target: T1, human CD5 on cells; assay: flow cytometry on primary human T-cells, antibody titration 2 h at 37 C, AF488 secondary, MFI
Procedure: Secondary anti-mouse AF488 stain, at a constant amount, was added for 30 minutes at 4° C.

[7] = molecular target: T4, purified human CD2 ectodomain (human, UniProt P06729 25-209); assay: BLI (Octet Red96), IgG on anti-human Fc biosensor, 50 nM human CD2 ectodomain, 1:1 model
T4 construct: Bought reagent; also called Sigma Aldrich Catalog #5086
T4 sequence: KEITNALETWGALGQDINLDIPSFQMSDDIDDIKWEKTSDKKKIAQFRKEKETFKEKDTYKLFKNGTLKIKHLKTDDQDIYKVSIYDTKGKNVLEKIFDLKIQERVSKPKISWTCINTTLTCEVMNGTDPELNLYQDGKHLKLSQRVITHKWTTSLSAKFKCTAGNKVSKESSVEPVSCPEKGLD

[8] = molecular target: T4, purified human CD2 ectodomain; assay: BLI (Octet Red96), IgG on anti-human Fc biosensor, 50 nM human CD2 ectodomain, 1:1 model, apparent monovalent affinity
human CD2 on cells [9] = molecular target: T2, human CD2 on cells; assay: flow cytometry on primary human T-cells, antibody titration 2 h at 37 C, AF488 secondary
[10] = molecular target: T4, purified human CD2 ectodomain; assay: BLI (Octet Red96), IgG on anti-murine Fc biosensor, 50 nM human CD2 ectodomain, 1:1 model
human CD2 on cells [11] = molecular target: T2, human CD2 on cells; assay: flow cytometry on primary human T-cells, antibody titration 2 h at 37 C, AF488 secondary, MFI
Procedure: Primary human T-cells were plated at 8×10⁴ cells/well and stained with a titration of the murine anti-CD23 antibody RPA-2.10 for 2 hours at 37° C. Secondary anti-mouse or anti-human AF488 stain, relative to primary antibody, at a constant amount, was added for 30 minutes at 4° C. After washing, plates were run on a flow cytometer and binding of the indicated antibody (and the negative control, i.e., mIgG1 or hIgG1) was determined based on geometric mean fluorescence intensity in the AF488 channel.

[12] = molecular target: T4, purified human CD2 ectodomain; assay: BLI (Octet Red96), IgG on anti-murine Fc biosensor, 50 nM human CD2 ectodomain, 1:1 model, apparent monovalent affinity

For “murine anti-CD5 antibody CRIS-1 (Novus Biologicals)”, the EC50 (human CD5 on cells [1]) was 0.043 nM and the EC50 (read off the curve) (human CD5 on cells [2]) was 0.04 nM.

murine anti-CD2 antibody TS1/8 was tested, and the EC50 (human CD2 on cells [3]) was 0.125 nM.

“murine anti-CD5 antibody UCHT2 (BioLegend)” gave an EC50 (human CD5 on cells [1]) of 0.354 nM and an EC50 (read off the curve) (human CD5 on cells [2]) of 0.3 nM.

B1: anti-CD5 antibody 5D7 hIgG1 (humanized version of murine antibody 5D7) (antibody, V domains shown)
VH: QVTLKESGPVLVKPTETLTLTCTFSGFSLSTSGMGVGWIRQAPGKGLEWVAHIWWDDDVYYNPSLKSRLTITKDASKDQVSLKLSSVTAADTAVYYCVRRRATGTGFDYWGQGTLVTVSS
VL: NIVMTQSPSSLSASVGDRVTITCQASQDVGTAVAWYQQKPDQSPKLLIYWTSTRHTGVPDRFTGSGSGTDFTLTISSLQPEDIATYFCHQYNSYNTFGSGTKLEIK
notes: Tested as human IgG1 (hIgG1); also called anti-CD5 5D7 antibody; humanized 5D7
B1 was tested, and the Kd [4] was 0.141 nM, the koff [4] was 3.36e-05 s⁻¹ and the kon [4] was 239000 M⁻¹ s⁻¹. For the same molecule, the EC50 (human CD5 on cells [5]) was 0.003 nM and the “EC50 (read off the curve)” value (human CD5 on cells [6]) was roughly 0.03 nM.

B2: anti-CD2 antibody Ab1 hIgG1 (antibody, V domains shown)
VH: QVQLVQSGAEVKKPGASVKVSCKASGYTFTEYYMYWVRQAPGQGLELMGRIDPEDGSIDYVEKFKKKVTLTADTSSSTAYMELSSLTSDDTAVYYCARGKFNYRFAYWGQGTLVTVSS
VL: DVVMTQSPPSLLVTLGQPASISCRSSQSLLHSSGNTYLNWLLQRPGQSPQPLIYLVSKLESGVPDRFSGSGSGTDFTLKISGVEAEDVGVYYCMQFTHYPYTFGQGTKLEIK
notes: Tested as human IgG1 (hIgG1)
Work on B2 yielded a koff [7] of 0.000289 s⁻¹, a kon [7] of 136000 M⁻¹ s⁻¹ and a Kd [8] of 2.12 nM.

B3: anti-CD2 antibody RPA-2.10 mIgG1 (antibody, V domains shown)
VH: EVKLVESGGGLVKPGGSLKLSCAASGFTFSSYDMSWVRQTPEKRLEWVASISGGGFLYYLDSVKGRFTISRDNARNILYLHMTSLRSEDTAMYYCARSSYGEIMDYWGQGTSVTVSS
VL: DILLTQSPAILSVSPGERVSFSCRASQRIGTSIHWYQQRTTGSPRLLIKYASESISGIPSRFSGSGSGTDFTLSINSVESEDVADYYCQQSHGWPFTFGGGTKLEIER
notes: Murine IgG1; also called mRPA-2.10; murine anti-CD2 antibody RPA-2.10
For B3, the EC50 (human CD2 on cells [3]) was 0.16 nM, the EC50 (human CD2 on cells [9]) was 0.00184 nM and the koff [10] was 0.000172 s⁻¹. The kon [10] was 86000 M⁻¹ s⁻¹, the “EC50 (read off the curve)” value (human CD2 on cells [11]) was roughly 0.03 nM and the Kd [12] was 2 nM.
